Results as given in article PMC7049099 (Cell reports, 2020).

Target: vesicular stomatitis virus (VSV) large (L) protein (vesicular stomatitis virus (VSV) …, UniProt P03523 1-2109)
Test: cryo-EM structure

Sequence of vesicular stomatitis virus (VSV) large (L) protein (P03523 whole entry): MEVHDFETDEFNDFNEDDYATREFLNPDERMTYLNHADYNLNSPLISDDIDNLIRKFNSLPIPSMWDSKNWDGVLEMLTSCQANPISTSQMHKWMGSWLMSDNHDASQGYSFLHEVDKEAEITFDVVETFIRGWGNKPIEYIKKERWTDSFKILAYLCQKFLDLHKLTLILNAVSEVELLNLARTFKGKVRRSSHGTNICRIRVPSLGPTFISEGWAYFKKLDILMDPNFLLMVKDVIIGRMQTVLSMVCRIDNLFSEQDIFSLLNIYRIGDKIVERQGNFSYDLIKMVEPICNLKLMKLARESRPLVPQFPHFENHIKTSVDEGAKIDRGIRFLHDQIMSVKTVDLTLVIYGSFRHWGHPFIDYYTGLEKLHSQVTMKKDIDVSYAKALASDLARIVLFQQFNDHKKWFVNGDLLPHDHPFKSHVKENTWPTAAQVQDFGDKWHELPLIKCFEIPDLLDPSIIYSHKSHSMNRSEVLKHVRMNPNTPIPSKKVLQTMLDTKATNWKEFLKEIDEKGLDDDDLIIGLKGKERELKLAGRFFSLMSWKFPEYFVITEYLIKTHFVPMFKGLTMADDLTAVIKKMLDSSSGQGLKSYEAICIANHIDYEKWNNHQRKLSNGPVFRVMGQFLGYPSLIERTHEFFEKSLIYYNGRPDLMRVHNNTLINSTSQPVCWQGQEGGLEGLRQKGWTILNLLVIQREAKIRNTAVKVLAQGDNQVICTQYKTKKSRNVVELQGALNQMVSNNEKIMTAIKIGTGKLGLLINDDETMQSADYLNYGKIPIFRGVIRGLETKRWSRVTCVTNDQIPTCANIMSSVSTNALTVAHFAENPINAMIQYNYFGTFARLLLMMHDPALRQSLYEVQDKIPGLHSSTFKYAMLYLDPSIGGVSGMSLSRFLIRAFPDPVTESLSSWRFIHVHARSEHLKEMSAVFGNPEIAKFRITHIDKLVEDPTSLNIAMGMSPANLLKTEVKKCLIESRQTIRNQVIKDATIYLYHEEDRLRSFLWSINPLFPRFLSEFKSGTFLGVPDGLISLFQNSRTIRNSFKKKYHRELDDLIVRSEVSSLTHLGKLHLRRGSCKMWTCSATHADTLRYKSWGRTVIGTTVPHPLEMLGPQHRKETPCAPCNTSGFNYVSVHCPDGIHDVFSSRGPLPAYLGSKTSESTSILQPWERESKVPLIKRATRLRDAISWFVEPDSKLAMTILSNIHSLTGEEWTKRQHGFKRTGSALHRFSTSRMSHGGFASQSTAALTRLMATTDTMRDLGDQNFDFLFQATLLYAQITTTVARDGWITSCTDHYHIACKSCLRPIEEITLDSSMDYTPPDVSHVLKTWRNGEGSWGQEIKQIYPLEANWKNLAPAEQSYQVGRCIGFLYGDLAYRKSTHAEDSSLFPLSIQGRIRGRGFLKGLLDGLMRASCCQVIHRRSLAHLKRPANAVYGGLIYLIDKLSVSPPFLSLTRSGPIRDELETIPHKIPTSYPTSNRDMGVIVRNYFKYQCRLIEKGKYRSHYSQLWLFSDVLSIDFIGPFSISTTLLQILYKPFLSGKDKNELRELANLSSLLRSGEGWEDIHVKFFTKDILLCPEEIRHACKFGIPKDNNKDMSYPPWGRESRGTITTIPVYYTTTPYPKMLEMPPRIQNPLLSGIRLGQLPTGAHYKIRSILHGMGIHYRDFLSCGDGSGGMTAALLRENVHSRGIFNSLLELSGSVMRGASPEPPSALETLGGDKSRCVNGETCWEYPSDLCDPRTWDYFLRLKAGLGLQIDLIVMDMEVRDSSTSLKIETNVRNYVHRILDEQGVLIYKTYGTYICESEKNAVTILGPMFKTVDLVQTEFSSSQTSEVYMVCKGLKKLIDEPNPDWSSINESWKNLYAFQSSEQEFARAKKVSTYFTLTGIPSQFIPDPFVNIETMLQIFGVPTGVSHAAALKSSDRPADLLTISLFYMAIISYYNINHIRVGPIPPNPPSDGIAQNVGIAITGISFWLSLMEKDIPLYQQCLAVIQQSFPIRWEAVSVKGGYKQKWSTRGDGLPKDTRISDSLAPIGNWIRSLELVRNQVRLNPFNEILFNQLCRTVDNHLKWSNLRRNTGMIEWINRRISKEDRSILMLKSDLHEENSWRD

B1: VSV phosphoprotein (P) fragment, residues 35-106 (domain or fragment)
chain: SNYELFQEDGVEEHTKPSYFQAADDSDTESEPEIEDNQGLYAQDPEAEQVEGFIQGPLDDYADEEVDVVFTS
  binding result: binds
